This is an account of results in patent US20250170268A1 (Merck KGaA, published 2025).

The target in the experiment is T1, Human CEACAM5 protein (human, UniProt P06731 35-702).
T1 sequence: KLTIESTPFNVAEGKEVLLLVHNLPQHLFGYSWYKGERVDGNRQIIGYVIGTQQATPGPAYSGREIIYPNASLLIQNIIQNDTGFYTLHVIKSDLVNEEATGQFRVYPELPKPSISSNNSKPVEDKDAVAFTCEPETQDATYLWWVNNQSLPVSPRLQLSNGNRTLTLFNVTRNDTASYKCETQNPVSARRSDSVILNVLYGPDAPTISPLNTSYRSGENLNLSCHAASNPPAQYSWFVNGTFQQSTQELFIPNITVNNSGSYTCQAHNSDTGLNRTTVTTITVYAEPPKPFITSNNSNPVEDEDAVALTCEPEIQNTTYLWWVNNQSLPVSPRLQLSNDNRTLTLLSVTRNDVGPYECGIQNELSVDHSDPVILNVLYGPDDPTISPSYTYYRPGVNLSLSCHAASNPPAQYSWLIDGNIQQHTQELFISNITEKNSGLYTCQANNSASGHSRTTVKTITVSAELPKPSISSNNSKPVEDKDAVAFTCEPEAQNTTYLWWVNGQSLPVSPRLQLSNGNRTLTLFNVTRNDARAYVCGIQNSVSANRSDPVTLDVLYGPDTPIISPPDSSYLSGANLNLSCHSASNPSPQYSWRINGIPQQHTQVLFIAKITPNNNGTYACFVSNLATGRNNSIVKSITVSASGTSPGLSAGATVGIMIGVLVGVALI
The experiment is described as follows: cell-based or functional assay.

B1: ADC8 (an analog of labetuzumab govitecan) (antibody, human IgG1, kappa)
heavy: not shown
light: DIQLTQSPSSLSASVGDRVTITCKASQDVGTSVAWYQQKPGKAPKLLIYWTSTRHTGVPSRFSGSGSGTDFTFTISSLQPEDIATYYCQQYSLYRSFGQGTKVEIKRTVAAPSVFIFPPSDEQLKSGTASVVCLLNNFYPREAKVQWKVDNALQSGNSQESVTEQDSKDSTYSLSSTLTLSKADYEKHKVYACEVTHQGLSSPVTKSFNRGEC
modifications: purchased drug-linker on reduced interchain cysteines; purchased drug-linker on reduced interchain cysteines, DAR of 7.7 for the whole antibody
As for B1, the “SPECIFICITY FACTOR (IC50 in MDA-MB-231 divided by IC50 in MKN-45)” value is 2.5 fold, the “SPECIFICITY FACTOR (IC50 in MDA-MB-231 divided by IC50 in SK-CO-1)” value worked out at 4.8 fold and the “SPECIFICITY FACTOR (IC50 in MDA-MB-231 divided by IC50 in SNU-16)” value was 1.8 fold.
